Reference: patent US20040052794

Assays:
[1] = tested on: luciferase; experiment: pulldown; settings: 100 mM NaCl; negative control
[2] = target: RB18A D9 product (aa 436-1566) (Homo sapiens) (UniProt Q15648); experiment: pulldown; settings: 100 mM NaCl
[3] = target: p53 wild-type (Homo sapiens) (UniProt P04637); experiment: pulldown; settings: 100 mM NaCl; positive control
[4] = tested on: p53 wild-type His-tag (Homo sapiens); settings: strand annealing initial rate, 20 nM protein, 37 C
[5] = target: GST-RB18A-N2 (Homo sapiens) (UniProt Q15648); settings: strand annealing initial rate, 20 nM protein, 37 C
GST-RB18A-N2 (Homo sapiens), sequence (Q15648 1249-1581): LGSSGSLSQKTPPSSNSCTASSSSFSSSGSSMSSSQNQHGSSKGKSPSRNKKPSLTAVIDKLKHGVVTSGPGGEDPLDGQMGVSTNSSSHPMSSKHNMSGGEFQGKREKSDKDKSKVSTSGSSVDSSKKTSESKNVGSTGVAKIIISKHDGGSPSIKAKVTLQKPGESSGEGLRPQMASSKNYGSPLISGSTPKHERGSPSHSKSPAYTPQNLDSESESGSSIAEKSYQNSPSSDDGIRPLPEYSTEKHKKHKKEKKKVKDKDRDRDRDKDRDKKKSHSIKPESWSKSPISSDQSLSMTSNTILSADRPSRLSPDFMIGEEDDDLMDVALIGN

RB18A D9 product (aa 436-1566) (Homo sapiens), sequence (Q15648 other isoform, or with tags, fused parts or gaps): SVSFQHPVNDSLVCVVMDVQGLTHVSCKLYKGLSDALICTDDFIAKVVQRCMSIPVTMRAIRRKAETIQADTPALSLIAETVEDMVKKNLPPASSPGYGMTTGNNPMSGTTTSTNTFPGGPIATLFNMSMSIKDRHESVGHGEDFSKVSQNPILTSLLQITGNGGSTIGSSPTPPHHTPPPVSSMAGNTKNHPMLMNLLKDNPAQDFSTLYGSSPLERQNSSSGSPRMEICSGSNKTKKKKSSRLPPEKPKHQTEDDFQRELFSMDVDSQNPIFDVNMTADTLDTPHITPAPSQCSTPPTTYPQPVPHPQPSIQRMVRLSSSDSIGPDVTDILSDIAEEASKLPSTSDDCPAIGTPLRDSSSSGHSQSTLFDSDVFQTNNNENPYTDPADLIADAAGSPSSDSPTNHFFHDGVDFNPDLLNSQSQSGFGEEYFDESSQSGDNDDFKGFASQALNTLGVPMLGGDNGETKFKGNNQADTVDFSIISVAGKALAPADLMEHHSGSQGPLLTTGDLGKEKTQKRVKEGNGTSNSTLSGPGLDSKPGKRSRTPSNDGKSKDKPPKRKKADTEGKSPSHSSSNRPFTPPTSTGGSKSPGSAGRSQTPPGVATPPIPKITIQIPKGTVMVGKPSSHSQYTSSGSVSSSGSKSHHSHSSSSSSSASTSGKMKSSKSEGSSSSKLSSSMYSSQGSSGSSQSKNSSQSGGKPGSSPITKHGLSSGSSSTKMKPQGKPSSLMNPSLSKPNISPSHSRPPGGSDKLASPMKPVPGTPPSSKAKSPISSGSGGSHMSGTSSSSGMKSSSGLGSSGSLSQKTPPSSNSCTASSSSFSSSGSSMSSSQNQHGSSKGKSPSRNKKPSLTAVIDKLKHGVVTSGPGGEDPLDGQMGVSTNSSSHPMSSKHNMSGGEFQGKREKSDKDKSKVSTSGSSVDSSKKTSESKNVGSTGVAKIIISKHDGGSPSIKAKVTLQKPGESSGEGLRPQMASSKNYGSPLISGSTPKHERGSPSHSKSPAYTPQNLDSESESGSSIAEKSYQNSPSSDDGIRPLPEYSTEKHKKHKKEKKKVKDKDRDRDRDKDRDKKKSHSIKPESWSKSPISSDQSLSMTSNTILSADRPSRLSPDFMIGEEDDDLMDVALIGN
p53 wild-type (Homo sapiens), sequence (P04637 whole entry): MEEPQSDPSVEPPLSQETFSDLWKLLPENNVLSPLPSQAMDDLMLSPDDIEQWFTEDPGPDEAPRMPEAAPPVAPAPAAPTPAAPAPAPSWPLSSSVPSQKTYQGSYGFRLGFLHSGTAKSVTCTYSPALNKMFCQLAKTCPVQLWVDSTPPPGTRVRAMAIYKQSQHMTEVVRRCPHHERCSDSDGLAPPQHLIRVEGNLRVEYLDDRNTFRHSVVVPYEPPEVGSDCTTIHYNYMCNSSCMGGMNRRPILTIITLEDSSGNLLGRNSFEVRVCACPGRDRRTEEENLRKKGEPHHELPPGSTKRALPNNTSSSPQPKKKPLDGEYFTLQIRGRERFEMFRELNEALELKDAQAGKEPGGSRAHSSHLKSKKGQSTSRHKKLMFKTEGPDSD

| Substance | binding (% of input retained) [1] | binding (% of input retained) [2] | binding (% of input retained) [3] | activity [4] [%/min] | activity [5] [%/min] |
| --- | --- | --- | --- | --- | --- |
| double-stranded DNA-cellulose | < 0.1 | 20 | 20 | – | – |
| phiX174 HaeIII 194 bp fragment, heat denatured | – | – | – | 5.9 | 14 |
